{"source": "the supplement of paper PMC12764529", "key": {"[1]": {"assay": "folding stability dG unfold (combined trypsin and chymotrypsin); higher = more stable", "method_in_brief": "(§1)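 Unfolding free energy was derived, per protease or combined, against a sequence-predicted unfolded-state K50 and a shared folded-state K50, starting from K50 inferred by Bayesian fitting of sequencing counts. Digestion with trypsin and chymotrypsin was carried out on designed mini-proteins under 80 residues without cysteine in a PA-tagged cDNA display construct. Only designs with AlphaFold2 dimer inter-PAE above 15 were kept.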"}, "[2]": {"assay": "folding stability dG unfold from chymotrypsin proteolysis; higher = more stable", "method_in_brief": "as §1"}, "[3]": {"assay": "folding stability dG unfold from trypsin proteolysis; higher = more stable", "method_in_brief": "as §1"}}, "note": "± gives the half width of the 95% confidence interval.", "data": [{"sequence": "SAGGSAGGSAGGSKTIEIELPGMSPEEIAAAIAEELGLDDVKITVERTEDGLLRVTIEVSAGGSAGGSAGGS [r4_408_TrROS_Hall]", "values": [{"measurement": "folding stability dG unfold", "setting": "[1]", "result": "1.76 ± 0.057", "unit": "kcal/mol"}, {"measurement": "folding stability dG unfold", "setting": "[2]", "result": "1.81 ± 0.049", "unit": "kcal/mol"}, {"measurement": "folding stability dG unfold", "setting": "[3]", "result": "1.57 ± 0.057", "unit": "kcal/mol"}]}, {"sequence": "SAGKIKIEVEYLDPNGDWRRYEHTIPFKPNQSFEEAINELLPPGLREIKITEVDPEEGTIKIDIWIRPDSAG [r5_227_TrROS]", "values": [{"measurement": "folding stability dG unfold", "setting": "[1]", "result": "2.41 ± 0.19", "unit": "kcal/mol"}, {"measurement": "folding stability dG unfold", "setting": "[2]", "result": "2.5 ± 0.061", "unit": "kcal/mol"}, {"measurement": "folding stability dG unfold", "setting": "[3]", "result": "2.12 ± 0.13", "unit": "kcal/mol"}]}, {"sequence": "SAGMSLVPLEELARAWAEERGLPVLDVEVPESRSPATRHVTITLTLRDPATGALTTETRELVIPEEELGSAG [r5_421_JUSTAS]", "values": [{"measurement": "folding stability dG unfold", "setting": "[1]", "result": "0.621 ± 0.1", "unit": "kcal/mol"}, {"measurement": "folding stability dG unfold", "setting": "[2]", "result": "0.583 ± 0.096", "unit": "kcal/mol"}, {"measurement": "folding stability dG unfold", "setting": "[3]", "result": "0.585 ± 0.077", "unit": "kcal/mol"}]}, {"sequence": "SMKILNDPNIKKVIPVFLMLMSPEEFKKLAEKLANGIKKELEEKGFPIPKDIEIKIIPFKSPEELKKALKSA [r9_204_TrMRF]", "values": [{"measurement": "folding stability dG unfold", "setting": "[1]", "result": "1.93 ± 0.14", "unit": "kcal/mol"}, {"measurement": "folding stability dG unfold", "setting": "[2]", "result": "2.31 ± 0.11", "unit": "kcal/mol"}, {"measurement": "folding stability dG unfold", "setting": "[3]", "result": "1.29 ± 0.039", "unit": "kcal/mol"}]}, {"sequence": "SAGGSAGGSEFYVIKIKNPETKKEIELVFEGSEEEIKAAIEELAKKPNLKIEIKKIKVSKEELSAGGSAGGS [r12_92_TrROS_Hall]", "values": [{"measurement": "folding stability dG unfold", "setting": "[1]", "result": "1.89 ± 0.18", "unit": "kcal/mol"}, {"measurement": "folding stability dG unfold", "setting": "[2]", "result": "1.78 ± 0.074", "unit": "kcal/mol"}, {"measurement": "folding stability dG unfold", "setting": "[3]", "result": "1.43 ± 0.085", "unit": "kcal/mol"}]}, {"sequence": "SAGGSAMSLSDIKDVDVYRNPNGWYTAKLKIKDPNNGKDKEVNIHVPPGQTPEKAKNIAREILKELSAGGSA [r15_181_TrROS]", "values": [{"measurement": "folding stability dG unfold", "setting": "[1]", "result": "1.14 ± 0.086", "unit": "kcal/mol"}, {"measurement": "folding stability dG unfold", "setting": "[2]", "result": "1.43 ± 0.11", "unit": "kcal/mol"}, {"measurement": "folding stability dG unfold", "setting": "[3]", "result": "0.606 ± 0.03", "unit": "kcal/mol"}]}, {"sequence": "SAGGSAGGSAGSMFMIMIEYDPPGYIKVSINRYKMGPDGDFEPVEPETHEIPIPPGQPFFSAGGSAGGSAGG [r11_440_TrROS]", "values": [{"measurement": "folding stability dG unfold", "setting": "[1]", "result": "2.3 ± 0.17", "unit": "kcal/mol"}, {"measurement": "folding stability dG unfold", "setting": "[2]", "result": "2.36 ± 0.13", "unit": "kcal/mol"}, {"measurement": "folding stability dG unfold", "setting": "[3]", "result": "1.91 ± 0.14", "unit": "kcal/mol"}]}, {"sequence": "SAGGSAGGWIIRIHFPNGHEHTFKIKSPEEAKDRIMDHHGMPPDKIPPETIKDVEIIPPDAMKESAGGSAGG [r6_588_TrROS]", "values": [{"measurement": "folding stability dG unfold", "setting": "[1]", "result": "0.434 ± 0.18", "unit": "kcal/mol"}, {"measurement": "folding stability dG unfold", "setting": "[2]", "result": "0.604 ± 0.12", "unit": "kcal/mol"}, {"measurement": "folding stability dG unfold", "setting": "[3]", "result": "-0.0377 ± 0.11", "unit": "kcal/mol"}]}, {"sequence": "SAGKVKVEKLEDGTVIVEAEIKDPETDEYIKIFDLVTFNPETGYALVPRLVIKGDKPFTFPVLVKLPKSAGG [r19_289_TrMRF]", "values": [{"measurement": "folding stability dG unfold", "setting": "[1]", "result": "0.671 ± 0.12", "unit": "kcal/mol"}, {"measurement": "folding stability dG unfold", "setting": "[2]", "result": "0.931 ± 0.11", "unit": "kcal/mol"}, {"measurement": "folding stability dG unfold", "setting": "[3]", "result": "0.0636 ± 0.067", "unit": "kcal/mol"}]}, {"sequence": "SAGSMKIKIKAKVPPGPYRIRIMWQYPGGDFKPVEEETVDPGQEVKIPIEFPDGKPFDPDNIRVMIEPPSAG [r5_287_TrROS]", "values": [{"measurement": "folding stability dG unfold", "setting": "[1]", "result": "2.08 ± 0.25", "unit": "kcal/mol"}, {"measurement": "folding stability dG unfold", "setting": "[2]", "result": "2.47 ± 0.097", "unit": "kcal/mol"}, {"measurement": "folding stability dG unfold", "setting": "[3]", "result": "1.44 ± 0.14", "unit": "kcal/mol"}]}, {"sequence": "SAGGSAGGNPDLVITFPDGVKITVHPDGTITITRFIPGRDVPVGTRTITVPAPDGIPLEELLKYSAGGSAGG [r6_572_TrMRF]", "values": [{"measurement": "folding stability dG unfold", "setting": "[1]", "result": "1.13 ± 0.13", "unit": "kcal/mol"}, {"measurement": "folding stability dG unfold", "setting": "[2]", "result": "1.2 ± 0.059", "unit": "kcal/mol"}, {"measurement": "folding stability dG unfold", "setting": "[3]", "result": "0.887 ± 0.062", "unit": "kcal/mol"}]}, {"sequence": "SAGGSAGGSAGGSLTFDGPDTKIEVYELDDDLLPVTIYTDSAPRTILVPPKEFLKLLASSAGGSAGGSAGGS [r4_346_TrMRF]", "values": [{"measurement": "folding stability dG unfold", "setting": "[1]", "result": "0.367 ± 0.089", "unit": "kcal/mol"}, {"measurement": "folding stability dG unfold", "setting": "[2]", "result": "0.449 ± 0.085", "unit": "kcal/mol"}, {"measurement": "folding stability dG unfold", "setting": "[3]", "result": "0.0915 ± 0.071", "unit": "kcal/mol"}]}, {"sequence": "SAGGSAGGSMVKVEVTTTYDPSSNKTTVTTTTTLTEGGGTVLGTKTTTTTTTISPTTPVTSVTSAGGSAGGS [r12_254_JUSTAS]", "values": [{"measurement": "folding stability dG unfold", "setting": "[1]", "result": "0.955 ± 0.042", "unit": "kcal/mol"}, {"measurement": "folding stability dG unfold", "setting": "[2]", "result": "1.17 ± 0.015", "unit": "kcal/mol"}, {"measurement": "folding stability dG unfold", "setting": "[3]", "result": "0.604 ± 0.031", "unit": "kcal/mol"}]}, {"sequence": "SAGGSAGGSAGGDIFIPPNGKLVVIENLPSIEEALEILKNFPNLKPFIDPKTKKIIVPVSAGGSAGGSAGGS [r10_792_TrMRF]", "values": [{"measurement": "folding stability dG unfold", "setting": "[1]", "result": "-0.216 ± 0.099", "unit": "kcal/mol"}, {"measurement": "folding stability dG unfold", "setting": "[2]", "result": "-0.338 ± 0.045", "unit": "kcal/mol"}, {"measurement": "folding stability dG unfold", "setting": "[3]", "result": "-0.145 ± 0.075", "unit": "kcal/mol"}]}, {"sequence": "SAGGMLVVLLDDRPEVLPVNPERFETPEEAVEAVAREVAERFPDAGERRVVVVNEDGEEVATVELTPESAGG [r13_257_TrMRF]", "values": [{"measurement": "folding stability dG unfold", "setting": "[1]", "result": "0.459 ± 0.052", "unit": "kcal/mol"}, {"measurement": "folding stability dG unfold", "setting": "[2]", "result": "0.875 ± 0.04", "unit": "kcal/mol"}, {"measurement": "folding stability dG unfold", "setting": "[3]", "result": "-1.08 ± 0.12", "unit": "kcal/mol"}]}, {"sequence": "SAGGSAGGSDVTVTEYDVTLTVDVTFTAPDANGNPVTTTTPVTIPLKVTVFDFGTARLVVVEGSAGGSAGGS [r20_58_TrMRF]", "values": [{"measurement": "folding stability dG unfold", "setting": "[1]", "result": "3.57 ± 0.058", "unit": "kcal/mol"}, {"measurement": "folding stability dG unfold", "setting": "[2]", "result": "3.82 ± 0.048", "unit": "kcal/mol"}, {"measurement": "folding stability dG unfold", "setting": "[3]", "result": "2.86 ± 0.087", "unit": "kcal/mol"}]}, {"sequence": "SAGGSAGGAVVKLPGNTVMTIDPSTGIAYVTDPSGKVTKYTLTKFPDKTLWEEEPVEEIPSDLLSAGGSAGG [r6_324_JUSTAS]", "values": [{"measurement": "folding stability dG unfold", "setting": "[1]", "result": "1.55 ± 0.23", "unit": "kcal/mol"}, {"measurement": "folding stability dG unfold", "setting": "[2]", "result": "1.44 ± 0.16", "unit": "kcal/mol"}, {"measurement": "folding stability dG unfold", "setting": "[3]", "result": "1.53 ± 0.09", "unit": "kcal/mol"}]}, {"sequence": "SMEIVFKGKNYYVPVKIDLDNPKITIETYPDKRNKVFKPLSKETAEKIAKAVEIEVAEKIAKAIAEGKPPSA [r9_368_TrMRF]", "values": [{"measurement": "folding stability dG unfold", "setting": "[1]", "result": "-0.246 ± 0.54", "unit": "kcal/mol"}, {"measurement": "folding stability dG unfold", "setting": "[2]", "result": "-0.5 ± 0.66", "unit": "kcal/mol"}, {"measurement": "folding stability dG unfold", "setting": "[3]", "result": "0.0537 ± 0.39", "unit": "kcal/mol"}]}, {"sequence": "SAGGSAGGSAGGMREIAREIWEEYNNPVTIRIRNPNGKHEPFRFPDDPEDIPGWDIDDITSAGGSAGGSAGG [r7_998_TrROS]", "values": [{"measurement": "folding stability dG unfold", "setting": "[1]", "result": "0.463 ± 0.082", "unit": "kcal/mol"}, {"measurement": "folding stability dG unfold", "setting": "[2]", "result": "0.79 ± 0.098", "unit": "kcal/mol"}, {"measurement": "folding stability dG unfold", "setting": "[3]", "result": "-0.831 ± 0.3", "unit": "kcal/mol"}]}, {"sequence": "SAGGRGVGRPGSRLLLVAEADLEPDEVSVEELAERIREAFPDVRVVDLRVEVGGEKARLFALVELDVSAGGS [r8_202_TrMRF]", "values": [{"measurement": "folding stability dG unfold", "setting": "[1]", "result": "1.41 ± 0.092", "unit": "kcal/mol"}, {"measurement": "folding stability dG unfold", "setting": "[2]", "result": "1.64 ± 0.067", "unit": "kcal/mol"}, {"measurement": "folding stability dG unfold", "setting": "[3]", "result": "0.917 ± 0.077", "unit": "kcal/mol"}]}, {"sequence": "SAGMKSLTITETVTDPNSDNPITIITDPVTGKVIKLYPDGTATVYDPNNPNKSTTYKMSPEEVIEKMSSSAG [r5_491_JUSTAS]", "values": [{"measurement": "folding stability dG unfold", "setting": "[1]", "result": "0.673 ± 0.061", "unit": "kcal/mol"}, {"measurement": "folding stability dG unfold", "setting": "[2]", "result": "0.967 ± 0.088", "unit": "kcal/mol"}, {"measurement": "folding stability dG unfold", "setting": "[3]", "result": "0.0921 ± 0.053", "unit": "kcal/mol"}]}]}
